Assay results: patent US7223547B2, “Polypeptides having a functional domain of interest and methods of identifying and using same” (Cytogen Corporation, priority 1995, dated 2007)
* marks the point of attachment. Biotin = O=C1N[C@H]2[C@H](CS[C@H]2CCCCC(=O)*)N1

Legend:
[1] = system: virus that causes hepatitis B; details: at given dosages; cited from earlier work
[2] = patients to whom the drug is administered; cited from earlier work
[3] = target: T1, SH3P9, a novel human gene (human, UniProt O00499 44-593); assay: plaque-lift screen of human prostate cancer and bone marrow cDNA expression libraries with biotinylated peptide complexed to SA-AP (T12SRC.4 also present in the initial screens)
T1 construct: Protein encoded by a cDNA clone from a lambda gt11 or gt22a human library, on plaque-lift filters; The vector fusion partner is not described; also called human homolog of SH3P9
T1 sequence: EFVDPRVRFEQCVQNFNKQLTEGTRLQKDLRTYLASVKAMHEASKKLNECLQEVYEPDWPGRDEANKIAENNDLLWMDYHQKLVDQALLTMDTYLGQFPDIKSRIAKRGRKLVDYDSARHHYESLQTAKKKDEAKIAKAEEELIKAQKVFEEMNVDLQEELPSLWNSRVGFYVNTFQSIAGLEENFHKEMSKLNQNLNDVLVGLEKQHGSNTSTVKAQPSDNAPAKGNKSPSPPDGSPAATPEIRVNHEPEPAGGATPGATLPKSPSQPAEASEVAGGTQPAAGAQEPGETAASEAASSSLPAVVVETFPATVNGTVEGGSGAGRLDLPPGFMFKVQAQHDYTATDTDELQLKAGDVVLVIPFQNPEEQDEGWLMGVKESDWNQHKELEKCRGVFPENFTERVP

SH3P14, human H74 = target: T2, SH3P14, human H74 (human, UniProt Q9UNF0 118-486, limits assumed); assay: as above
T2 construct: Protein encoded by a cDNA clone from a lambda gt11 or gt22a human library, on plaque-lift filters
T2 sequence: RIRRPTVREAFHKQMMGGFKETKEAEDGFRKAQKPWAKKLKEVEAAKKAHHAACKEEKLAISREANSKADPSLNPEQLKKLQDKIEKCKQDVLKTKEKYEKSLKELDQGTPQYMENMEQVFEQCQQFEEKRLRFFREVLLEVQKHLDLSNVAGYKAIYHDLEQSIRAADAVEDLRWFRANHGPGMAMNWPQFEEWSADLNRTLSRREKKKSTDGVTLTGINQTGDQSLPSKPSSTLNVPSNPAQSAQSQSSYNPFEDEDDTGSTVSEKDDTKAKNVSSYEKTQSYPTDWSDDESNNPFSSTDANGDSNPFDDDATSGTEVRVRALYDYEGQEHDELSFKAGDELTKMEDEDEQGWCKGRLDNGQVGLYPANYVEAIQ

[4] = target: T3, SH3P17, a novel human gene (human, UniProt Q15811 729-1220); assay: as above
T3 construct: Fragment encoded by a cDNA clone, with at least four SH3 domains, on plaque-lift filters
T3 sequence: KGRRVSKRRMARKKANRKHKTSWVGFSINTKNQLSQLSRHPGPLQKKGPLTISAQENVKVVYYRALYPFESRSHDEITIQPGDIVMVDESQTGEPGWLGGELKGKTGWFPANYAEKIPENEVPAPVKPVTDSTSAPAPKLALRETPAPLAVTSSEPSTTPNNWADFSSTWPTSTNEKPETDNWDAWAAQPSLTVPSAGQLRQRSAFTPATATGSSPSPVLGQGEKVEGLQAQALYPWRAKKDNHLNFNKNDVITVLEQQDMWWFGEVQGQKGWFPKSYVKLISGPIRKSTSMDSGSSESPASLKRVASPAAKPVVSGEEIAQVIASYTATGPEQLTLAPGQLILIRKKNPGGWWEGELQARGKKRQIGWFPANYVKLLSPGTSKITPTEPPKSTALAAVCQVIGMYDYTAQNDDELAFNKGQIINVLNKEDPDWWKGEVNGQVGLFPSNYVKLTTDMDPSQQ

[5] = target: T4, SH3P18, a novel human gene (human, UniProt Q9NZM3 952-1192); assay: as above
T4 construct: Fragment encoded by a cDNA clone, with at least three SH3 domains, on plaque-lift filters
T4 sequence: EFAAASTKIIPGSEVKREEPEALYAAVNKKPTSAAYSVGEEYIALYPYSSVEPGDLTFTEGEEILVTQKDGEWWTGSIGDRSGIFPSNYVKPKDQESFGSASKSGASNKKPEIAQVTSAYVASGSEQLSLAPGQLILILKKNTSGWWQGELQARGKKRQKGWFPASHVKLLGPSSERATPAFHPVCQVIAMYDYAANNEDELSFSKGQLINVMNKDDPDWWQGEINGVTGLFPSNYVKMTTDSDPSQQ

SH3P5, mouse Cortactin = target: T5, SH3P5, mouse Cortactin (mouse, UniProt Q60598 1-546); assay: plaque-lift screen of mouse 16 day embryo cDNA expression library with biotinylated peptide complexed to SA-AP
T5 construct: Protein encoded by a cDNA clone, on plaque-lift filters; not shown: N-terminal phi10 leader (T7-Tag) common to all lambda EXlox recombinants

SH3P6, mouse MLN50 = target: T6, SH3P6, mouse MLN50 (mouse, UniProt Q61792 59-263); assay: as above
T6 construct: Protein encoded by a cDNA clone, on plaque-lift filters; not shown: N-terminal phi10 leader (T7-Tag) common to all lambda EXlox recombinants
T6 sequence: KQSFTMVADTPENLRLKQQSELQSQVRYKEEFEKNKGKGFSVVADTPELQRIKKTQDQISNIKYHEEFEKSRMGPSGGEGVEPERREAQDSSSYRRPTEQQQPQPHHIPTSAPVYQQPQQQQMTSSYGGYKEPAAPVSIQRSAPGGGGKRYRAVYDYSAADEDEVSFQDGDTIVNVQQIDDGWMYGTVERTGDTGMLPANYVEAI

[6] = target: T7, SH3P7, a novel mouse gene (mouse, UniProt Q62418 1-436); assay: as above
T7 construct: Protein encoded by a cDNA clone, on plaque-lift filters; not shown: N-terminal phi10 leader (T7-Tag) common to all lambda EXlox recombinants

[7] = target: T8, SH3P8, a novel mouse gene (mouse, UniProt Q62419 1-368); assay: as above
T8 construct: Protein encoded by a cDNA clone, on plaque-lift filters; not shown: N-terminal phi10 leader (T7-Tag) common to all lambda EXlox recombinants

[8] = target: T9, SH3P9, a novel mouse gene (mouse, UniProt O08539 2-588); assay: as above
T9 construct: Protein encoded by a cDNA clone, on plaque-lift filters; also called SH3P9 (mouse); not shown: N-terminal phi10 leader (T7-Tag) common to all lambda EXlox recombinants
T9 sequence: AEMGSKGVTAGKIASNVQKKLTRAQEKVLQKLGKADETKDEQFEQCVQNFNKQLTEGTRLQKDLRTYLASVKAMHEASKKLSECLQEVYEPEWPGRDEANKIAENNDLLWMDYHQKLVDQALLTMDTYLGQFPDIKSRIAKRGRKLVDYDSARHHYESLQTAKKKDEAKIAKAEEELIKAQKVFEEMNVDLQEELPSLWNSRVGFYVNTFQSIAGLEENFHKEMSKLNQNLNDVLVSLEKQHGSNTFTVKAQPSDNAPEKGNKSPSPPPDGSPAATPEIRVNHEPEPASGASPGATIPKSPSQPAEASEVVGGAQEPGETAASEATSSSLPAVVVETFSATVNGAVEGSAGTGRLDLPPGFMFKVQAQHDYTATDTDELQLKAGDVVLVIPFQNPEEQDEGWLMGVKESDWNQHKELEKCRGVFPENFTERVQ

SH3P10, mouse HS1 = target: T10, SH3P10, mouse HS1 (mouse, UniProt P49710 1-486); assay: as above
T10 construct: Protein encoded by a cDNA clone, on plaque-lift filters; also called SPY75/HS1; not shown: N-terminal phi10 leader (T7-Tag) common to all lambda EXlox recombinants
T10 sequence: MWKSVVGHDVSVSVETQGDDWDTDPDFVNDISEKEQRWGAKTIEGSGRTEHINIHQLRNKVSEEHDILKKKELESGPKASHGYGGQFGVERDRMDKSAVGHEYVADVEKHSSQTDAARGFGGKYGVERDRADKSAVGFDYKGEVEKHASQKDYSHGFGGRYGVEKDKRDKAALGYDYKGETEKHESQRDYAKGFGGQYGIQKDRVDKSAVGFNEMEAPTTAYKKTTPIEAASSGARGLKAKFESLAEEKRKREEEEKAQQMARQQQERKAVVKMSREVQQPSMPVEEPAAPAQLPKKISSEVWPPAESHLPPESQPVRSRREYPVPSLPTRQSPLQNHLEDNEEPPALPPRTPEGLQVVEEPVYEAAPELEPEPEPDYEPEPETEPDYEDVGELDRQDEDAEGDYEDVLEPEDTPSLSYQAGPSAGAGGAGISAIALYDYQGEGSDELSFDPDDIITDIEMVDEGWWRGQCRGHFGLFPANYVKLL

SH3P11, mouse Crk = target: T11, SH3P11, mouse Crk (mouse, UniProt Q64010 1-304); assay: as above
T11 construct: Protein encoded by a cDNA clone, on plaque-lift filters; not shown: N-terminal phi10 leader (T7-Tag) common to all lambda EXlox recombinants

[9] = target: T12, SH3P12, a novel mouse gene (mouse, UniProt Q62417 1-1290); assay: as above
T12 construct: Protein encoded by a cDNA clone, on plaque-lift filters; not shown: N-terminal phi10 leader (T7-Tag) common to all lambda EXlox recombinants
T12 sequence: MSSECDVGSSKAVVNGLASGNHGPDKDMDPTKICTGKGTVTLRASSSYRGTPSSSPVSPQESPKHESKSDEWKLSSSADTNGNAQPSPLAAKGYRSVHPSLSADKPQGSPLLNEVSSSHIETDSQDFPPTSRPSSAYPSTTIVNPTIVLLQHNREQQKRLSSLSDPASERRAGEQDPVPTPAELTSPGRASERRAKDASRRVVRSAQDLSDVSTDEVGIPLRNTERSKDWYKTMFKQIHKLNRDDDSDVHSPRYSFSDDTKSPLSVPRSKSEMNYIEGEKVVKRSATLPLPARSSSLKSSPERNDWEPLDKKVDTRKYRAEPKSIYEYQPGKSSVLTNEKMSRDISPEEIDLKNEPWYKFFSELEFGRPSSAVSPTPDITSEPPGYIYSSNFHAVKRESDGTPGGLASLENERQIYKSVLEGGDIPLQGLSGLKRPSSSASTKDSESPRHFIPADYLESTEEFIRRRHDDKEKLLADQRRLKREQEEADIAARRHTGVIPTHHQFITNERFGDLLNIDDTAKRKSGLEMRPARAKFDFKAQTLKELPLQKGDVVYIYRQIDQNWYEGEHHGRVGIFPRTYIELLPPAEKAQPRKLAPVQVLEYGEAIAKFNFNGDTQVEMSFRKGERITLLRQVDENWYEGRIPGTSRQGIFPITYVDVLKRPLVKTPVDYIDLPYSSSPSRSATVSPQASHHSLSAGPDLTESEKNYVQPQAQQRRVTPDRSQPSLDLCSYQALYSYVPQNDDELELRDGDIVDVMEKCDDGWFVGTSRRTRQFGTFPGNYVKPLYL

[10] = target: T13, SH3P13, a novel mouse gene (mouse, UniProt Q62421 1-347); assay: as above
T13 construct: Protein encoded by a cDNA clone, on plaque-lift filters; not shown: N-terminal phi10 leader (T7-Tag) common to all lambda EXlox recombinants
T13 sequence: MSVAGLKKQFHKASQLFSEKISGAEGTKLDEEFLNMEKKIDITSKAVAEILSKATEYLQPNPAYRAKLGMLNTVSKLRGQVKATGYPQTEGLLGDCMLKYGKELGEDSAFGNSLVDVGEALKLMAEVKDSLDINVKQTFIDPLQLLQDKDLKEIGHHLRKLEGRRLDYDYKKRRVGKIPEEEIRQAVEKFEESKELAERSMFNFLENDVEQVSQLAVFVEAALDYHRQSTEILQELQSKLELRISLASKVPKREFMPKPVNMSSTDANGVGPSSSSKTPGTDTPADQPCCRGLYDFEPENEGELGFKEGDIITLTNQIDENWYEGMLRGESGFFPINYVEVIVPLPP

T11 sequence (Q64010 whole entry): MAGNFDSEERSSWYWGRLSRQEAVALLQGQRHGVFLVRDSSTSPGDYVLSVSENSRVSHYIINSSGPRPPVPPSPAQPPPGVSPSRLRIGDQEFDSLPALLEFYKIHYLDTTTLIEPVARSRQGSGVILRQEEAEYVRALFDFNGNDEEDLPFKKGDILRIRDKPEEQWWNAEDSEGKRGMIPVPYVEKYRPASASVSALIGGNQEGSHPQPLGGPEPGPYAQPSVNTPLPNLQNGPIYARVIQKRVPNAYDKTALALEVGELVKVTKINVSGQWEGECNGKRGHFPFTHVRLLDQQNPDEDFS
T7 sequence (Q62418 other isoform, or with tags, fused parts or gaps): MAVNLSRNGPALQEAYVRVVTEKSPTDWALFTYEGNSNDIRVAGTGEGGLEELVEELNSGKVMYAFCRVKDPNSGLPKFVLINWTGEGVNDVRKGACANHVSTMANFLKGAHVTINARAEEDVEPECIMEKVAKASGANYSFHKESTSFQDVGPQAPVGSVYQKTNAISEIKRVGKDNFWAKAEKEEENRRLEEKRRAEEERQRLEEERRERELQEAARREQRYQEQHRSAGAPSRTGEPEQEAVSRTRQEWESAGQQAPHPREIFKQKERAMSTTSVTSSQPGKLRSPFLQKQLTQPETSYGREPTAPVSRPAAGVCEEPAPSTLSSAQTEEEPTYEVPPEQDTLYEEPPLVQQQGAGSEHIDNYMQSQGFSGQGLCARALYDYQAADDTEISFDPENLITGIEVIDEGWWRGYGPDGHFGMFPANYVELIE
T8 sequence (Q62419 other isoform, or with tags, fused parts or gaps): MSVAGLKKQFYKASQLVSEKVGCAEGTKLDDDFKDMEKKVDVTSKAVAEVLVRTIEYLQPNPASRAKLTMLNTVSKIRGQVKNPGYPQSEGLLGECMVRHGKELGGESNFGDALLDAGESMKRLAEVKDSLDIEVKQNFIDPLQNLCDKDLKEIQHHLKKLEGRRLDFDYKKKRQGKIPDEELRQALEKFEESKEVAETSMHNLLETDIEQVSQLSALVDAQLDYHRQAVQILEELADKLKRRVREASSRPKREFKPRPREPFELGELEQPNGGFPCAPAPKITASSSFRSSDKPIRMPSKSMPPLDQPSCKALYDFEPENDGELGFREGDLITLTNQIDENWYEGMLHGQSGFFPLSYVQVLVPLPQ
T5 sequence (Q60598 whole entry S298P): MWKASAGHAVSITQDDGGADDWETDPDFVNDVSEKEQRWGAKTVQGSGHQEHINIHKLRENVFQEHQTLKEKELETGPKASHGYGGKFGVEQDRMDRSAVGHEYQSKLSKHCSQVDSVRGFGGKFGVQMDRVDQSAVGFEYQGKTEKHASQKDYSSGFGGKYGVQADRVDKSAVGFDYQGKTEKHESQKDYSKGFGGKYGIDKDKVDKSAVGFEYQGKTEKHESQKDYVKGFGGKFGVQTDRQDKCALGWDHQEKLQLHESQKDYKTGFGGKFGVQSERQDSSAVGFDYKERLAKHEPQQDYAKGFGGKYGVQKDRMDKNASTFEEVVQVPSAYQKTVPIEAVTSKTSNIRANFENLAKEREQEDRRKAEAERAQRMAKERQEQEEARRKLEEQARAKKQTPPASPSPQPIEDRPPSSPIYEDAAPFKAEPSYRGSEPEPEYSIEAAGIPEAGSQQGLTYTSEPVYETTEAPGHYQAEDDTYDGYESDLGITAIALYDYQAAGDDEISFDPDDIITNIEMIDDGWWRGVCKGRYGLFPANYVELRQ

## O=c1[nH]c(=O)n([C@@H]2O[C@H](CO)[C@@H](O)[C@@H]2F)cc1I [FIAU]
[1]
  effectiveness against the virus that causes hepatitis B: effective
[2]
  suspected toxic side effects: liver failure in certain patients

B1: T12SRC.1 (biotin-GILAPPVPPRNTR-NH2) (peptide)
peptide: Biotin-GILAPPVPPRNTR-NH2
SMILES: CC[C@H](C)[C@H](NC(=O)CNC(=O)CCCC[C@@H]1SC[C@@H]2NC(=O)N[C@@H]21)C(=O)N[C@@H](CC(C)C)C(=O)N[C@@H](C)C(=O)N1CCC[C@H]1C(=O)N1CCC[C@H]1C(=O)N[C@H](C(=O)N1CCC[C@H]1C(=O)N1CCC[C@H]1C(=O)N[C@@H](CCCNC(=N)N)C(=O)N[C@@H](CC(N)=O)C(=O)N[C@H](C(=O)N[C@@H](CCCNC(=N)N)C(N)=O)[C@@H](C)O)C(C)C
notes: Used complexed with streptavidin-alkaline phosphatase; also called variant of the pSrcCII peptide
[3]
  binding result: binds
SH3P14, human H74
  binding result: binds
[4]
  binding result: binds
[5]
  binding result: binds

B2: pCort (biotin-SGSGSRLTPQSKPPLPPKPSWVSR-NH2) (peptide)
peptide: Biotin-SGSGSRLTPQSKPPLPPKPSWVSR-NH2
SMILES: CC(C)C[C@H](NC(=O)[C@H](CCCNC(=N)N)NC(=O)[C@H](CO)NC(=O)CNC(=O)[C@H](CO)NC(=O)CNC(=O)[C@H](CO)NC(=O)CCCC[C@@H]1SC[C@@H]2NC(=O)N[C@@H]21)C(=O)N[C@H](C(=O)N1CCC[C@H]1C(=O)N[C@@H](CCC(N)=O)C(=O)N[C@@H](CO)C(=O)N[C@@H](CCCCN)C(=O)N1CCC[C@H]1C(=O)N1CCC[C@H]1C(=O)N[C@@H](CC(C)C)C(=O)N1CCC[C@H]1C(=O)N1CCC[C@H]1C(=O)N[C@@H](CCCCN)C(=O)N1CCC[C@H]1C(=O)N[C@@H](CO)C(=O)N[C@@H](Cc1c[nH]c2ccccc12)C(=O)N[C@H](C(=O)N[C@@H](CO)C(=O)N[C@@H](CCCNC(=N)N)C(N)=O)C(C)C)[C@@H](C)O
notes: Synthetic peptide with the Cortactin SH3 recognition unit motif; used complexed with streptavidin-alkaline phosphatase
SH3P5, mouse Cortactin
  binding result: binds
SH3P6, mouse MLN50
  binding result: binds
[6]
  binding result: binds
[7]
  binding result: binds
[8]
  binding result: binds
SH3P10, mouse HS1
  binding result: binds
SH3P11, mouse Crk
  binding result: binds
[9]
  binding result: binds
[10]
  binding result: binds
